Our source for the KM, Kcat and kcat (Mmin^-1) values is patent publication US20100136594.

The target of series [1] is T1, 20-mer peptide substrate GEIIGGTECKPHSRPYMAYL (SEQ ID NO: 1).
T1 chain: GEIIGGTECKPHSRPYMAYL

The target in series [2] is T2, Dipeptide substrate Gly-Arg labeled with alpha-methylcoumarin (AMC).
T2 chain: GR

B1: Dipeptidyl peptidase I (DPPI) (protein)
chain 1: not shown
chain 2: LPTSWDWRNVHGINFVSPVRNQASCGSCYSFASMGMLEARIRILTNNSQTPILSPQEVVSCSQYAQGCEGGFPYLIAGKYAQDFGLVEEACFPYTGTDSPCKMKEDCFRYYSSEYHYVGGFYGGCNEALMKLELVHHGPMAVAFEVYDDFLHYKKGIYHHTGLR
chain 3: not shown
Consider B1, for which, in series [1], the KM was found to be 62 µM; the Kcat entry was “about 62 µM, 1.15 sec^-1, and 1.95×10^4 M^-1sec^-1, respectively”; the kcat (Mmin^-1) came to 1.15 s⁻¹. Besides, in series [2], the KM turned out to be 64 µM and the kcat (Mmin^-1) stood at 94.5 s⁻¹.
